Consider four molecules from patent US20130287781A1 (GlaxoSmithKline, published 2013).

Experiment [1] has as its target T1, GST-human NOGO-A56 (human).
T1 construct: Expressed in E. coli BL21 from pGEX-6P1 and purified on glutathione-sepharose; the GST tag is part of the protein in the assays; also called GST-Nogo-A 5+6; GST Nogo-A 5 + 6
As to the kind of experiment: SPR (Biacore) off-rate on NOGO chip, panel of H6FL CDR H3 variants with L13FL.

Experiment [2] addresses T1, GST-human NOGO-A56. Briefly: direct ELISA on NOGO (GST-human NOGO-A56), CDR H3 variant of H6FL with L13FL, Abs490; coating concentration not given. (An ELISA detects its analyte on a solid surface through an enzyme-linked reagent.)
Experiment [3] concerns the target T1, GST-human NOGO-A56. As to the kind of experiment: reverse format ELISA: antibody captured on anti-human IgG, GST-Nogo-A 5+6 detected with anti-GST-HRP; the x axis is the antibody concentration.
The target of experiment [4] is T1, GST-human NOGO-A56. As to the kind of experiment: SPR (Biacore), GST-human NOGO-A56 amine-coupled to CM5, antibody flowed over, 25 C. A general note: Surface plasmon resonance follows binding to a sensor surface in real time, without labels.
Protocol: (§1) GST-human NOGO-A56 was immobilised to a CM5 chip by primary amine coupling using the Biacore Wizard program designed for targeted immobilisation levels. The CM5 sensor surface was activated by passing a solution of 50 mM N-hydroxy-succinimide (NHS) and 200 mM N-ethyl-N′-dimethylaminopropyl carbonide (EDC). Then GST-human NOGO-A56 in sodium acetate buffer, pH5.0 or pH 4.5, was passed over the chip and immobilised. After immobilisation was complete any still activated esters were blocked by an injection of 1M ethanolamine hydrochloride, pH8.5.
(§2) The anti-NOGO mAbs were diluted down in HBS-EP (10 mM HEPES, pH 7.4, 150 mM NaCl, 3 mM EDTA, and 0.005% P-20 surfactant) for the BIAcore 3000 or HBS-EP+ (10 mM HEPES, pH 7.4, 150 mM NaCl, 3 mM EDTA, and 0.05% P-20 surfactant) in the case of the T100 and binding studies were carried out at range of defined antibody concentrations. All runs were referenced against a blanked sensor surface (one that had been activated and blocked as described earlier but had no addition of ligand). Analysis of binding was carried out using the BIAevaluation kinetic analysis software version 4.1 for the BIAcore 3000 and T100 kinetic analysis software version 1.0. […] Unless otherwise stated, the BIAcore experiments were performed at 25° C.
Experiment [5] concerns the target T1, GST-human NOGO-A56. As to the kind of experiment: direct ELISA, GST-human NOGO-A56 coated at 1.0 mcg/ml, purified antibody, OD490.
Protocol: (§3) Wells were rinsed once with TBS+0.05% Tween (TBST) then incubated with 2% BSA in TBST to block non-specific binding sites at room temperature for 1 hour. Antibodies were diluted in TBST+2% BSA to 10 μg/ml and ½ dilutions made from this. Antibodies were added to wells in duplicate and incubated at room temperature for 1 hour. […] The wells were washed three times with TBST and then incubated with 100 μl OPD peroxidase substrate (Sigma) per well for 10 minutes. The colour reaction was stopped by the addition of 25 μl concentrated H₂SO₄. Optical density at 490 nm was measured using a plate reader. Background values read from wells with no antibody were subtracted.
In experiment [6] the target is T1, GST-human NOGO-A56. As to the kind of experiment: direct ELISA, human NOGO-A (GST-human NOGO-A56) coated at 1 ug/ml, Abs490.
Experiment [7] has as its target T1, GST-human NOGO-A56. Briefly: SPR (Biacore T100), antigen amine-coupled to CM5, antibody 0.125-8 nM; mean of six runs in duplicate (SD in brackets).
Description: In the first approach, the recombinant Nogo-A was coupled to the surface of the chip and anti-Nogo-A antibodies passed over this surface. In the second approach, Protein A was used to capture the antibody onto the surface of the chip over which the recombinant GST-human Nogo-A56 was passed.
The antigen was bound to the CM5 chip by primary amine coupling. […] The values show the mean and standard deviation (in brackets) of six independent runs carried out in duplicate. Each completed data set was analysed independently prior to the calculation of mean and standard deviation.
For experiment [8], the target named is T1, GST-human NOGO-A56. Briefly: competition ELISA on coated GST-Nogo-A 5+6; competitor 2A10 pre-mixed, bound 2A10 detected with anti-mouse IgG-HRP.
Experiment [9] addresses T1, GST-human NOGO-A56. As to the kind of experiment: SPR (Biacore), GST-human NOGO-A56 amine-coupled to CM5, antibody flowed over, 25 C. This is another data set of the same source.
Protocol: as §1, §2
Experiment [10] concerns the target T1, GST-human NOGO-A56. As to the kind of experiment: direct ELISA, GST-Nogo-A 5+6 coated at 1.0 mcg/ml, anti-human IgG-HRP, Abs490.
Protocol: as §3
Experiment [11] has as its target T1, GST-human NOGO-A56. Briefly: SPR (Biacore), GST-human NOGO-A56 amine-coupled to CM5, antibody flowed over, 37 C.
Protocol: as §1, §2
Experiment [12] addresses T1, GST-human NOGO-A56. As to the kind of experiment: SPR (Biacore T100), reverse format: antibody captured by Protein A, GST Nogo-A 5+6 0.125-8 nM flowed over; mean (SD in brackets).
Description: Protein A was immobilised to approximately 4000RUs by primary amine and used to capture 200-300RUs of the sample antibodies. […] The values show the mean and standard deviation (in brackets) of three independent runs in duplicate. Each data set was independently analysed prior to the calculation of the mean and standard deviation.
Experiment [13] deals with T2, native human Nogo-A of IMR32 neuroblastoma cells (intracellular) (human, UniProt Q9NQC3 1-1192).
T2 construct: whole, on cells; Detected inside permeabilised, fixed cells (ER-resident), not on the cell surface; also called intracellular Nogo-A; native Nogo-A
T2 sequence (looked up): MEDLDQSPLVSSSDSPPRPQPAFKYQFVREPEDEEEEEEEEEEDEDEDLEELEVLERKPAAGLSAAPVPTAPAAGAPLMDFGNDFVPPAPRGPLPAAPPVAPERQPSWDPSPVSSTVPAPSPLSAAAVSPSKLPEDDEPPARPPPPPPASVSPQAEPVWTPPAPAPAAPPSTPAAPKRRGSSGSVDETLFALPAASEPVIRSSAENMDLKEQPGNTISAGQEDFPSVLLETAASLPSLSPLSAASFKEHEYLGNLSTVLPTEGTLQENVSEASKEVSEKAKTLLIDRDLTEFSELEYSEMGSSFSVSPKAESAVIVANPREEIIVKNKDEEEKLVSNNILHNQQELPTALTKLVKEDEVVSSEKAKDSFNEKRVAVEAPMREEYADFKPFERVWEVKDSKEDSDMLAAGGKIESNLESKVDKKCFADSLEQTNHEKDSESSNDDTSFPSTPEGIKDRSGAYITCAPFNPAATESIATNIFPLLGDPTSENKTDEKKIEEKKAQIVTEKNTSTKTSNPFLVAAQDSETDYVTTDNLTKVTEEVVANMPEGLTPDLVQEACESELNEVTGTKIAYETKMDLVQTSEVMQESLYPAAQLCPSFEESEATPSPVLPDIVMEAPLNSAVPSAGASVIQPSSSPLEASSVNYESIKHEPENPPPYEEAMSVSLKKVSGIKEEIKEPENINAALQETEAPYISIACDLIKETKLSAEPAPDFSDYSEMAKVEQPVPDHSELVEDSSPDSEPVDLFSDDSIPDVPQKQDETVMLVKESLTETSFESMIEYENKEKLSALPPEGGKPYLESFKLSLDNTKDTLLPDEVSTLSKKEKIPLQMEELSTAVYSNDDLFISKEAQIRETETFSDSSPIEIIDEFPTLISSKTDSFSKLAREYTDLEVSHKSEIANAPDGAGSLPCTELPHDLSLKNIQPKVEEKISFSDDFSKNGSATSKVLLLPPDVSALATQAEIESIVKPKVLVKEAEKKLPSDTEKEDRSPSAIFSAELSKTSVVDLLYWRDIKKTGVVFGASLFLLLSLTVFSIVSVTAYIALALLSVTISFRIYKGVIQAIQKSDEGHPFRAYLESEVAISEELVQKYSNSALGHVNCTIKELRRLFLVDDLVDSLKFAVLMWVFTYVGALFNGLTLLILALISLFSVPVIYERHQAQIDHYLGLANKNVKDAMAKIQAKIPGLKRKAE
As to the kind of experiment: flow cytometry on permeabilised, fixed IMR32 cells (intracellular Nogo-A), PE anti-human IgG, MFI. A general note: Flow cytometry measures light scatter and fluorescence of single cells or particles in a stream.
Protocol: In the second assay, the ability of the humanised antibodies to bind native Nogo-A was assessed using a human neuroblastoma cell line—IMR32. This cell line is characterised by high intracellular/low cell surface levels of Nogo-A protein. In an attempt to increase the binding signal, the assay was set-up to detect intracellular Nogo-A (ER-resident). IMR32 cells were permeabilised and fixed prior to staining with the anti-Nogo-A humanised antibodies. Binding of the antibodies to Nogo-A was detected using an anti-human IgG-PE labelled secondary (Sigma, #P8047).

Experiment [14] has as its target T1, GST-human NOGO-A56. As to the kind of experiment: direct ELISA, GST-human NOGO-A56 coated at 1.0 mcg/ml, purified antibody, OD490. The source holds these as a separate data set.
For experiment [15], the target named is T1, GST-human NOGO-A56. As to the kind of experiment: SPR (Biacore), GST-human NOGO-A56 amine-coupled to CM5, antibody flowed over, 25 C. This is another data set of the same source.
The target in experiment [16] is T1, GST-human NOGO-A56. Briefly: SPR (Biacore) off-rate ranking on GST-human NOGO-A56 chip, one experiment.
Protocol: as §1
The GST-human NOGO-A56 chip was prepared as for kinetic analysis. Cell supernatants where taken directly from transient transfections of CHO-K1 cells. These were passed directly over the sensor surface and the interaction measured. A mock transfected cell supernatant was used for double referencing to remove any artefacts due to the tissue culture media. All runs were referenced against a blanked sensor surface (one that had been activated and blocked as described earlier but had no addition of ligand). Analysis of binding was carried out using the BIAevaluation kinetic analysis software version 4.1.
The target of experiment [17] is T3, peptide 7 (biotin-SGSG-VLPDIVMEAPLNSAVP) (human, N-terminal biotin).
T3 peptide: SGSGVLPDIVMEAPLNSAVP
Briefly: peptide ELISA: biotinylated 16-mer peptide on streptavidin, antibody at 5 ug/ml, kappa-chain peroxidase conjugate, Abs490.
Protocol: (§4) Streptavidin at 5 μg/ml in sterile water was coated onto Nunc immunosorp plates (100 μl per well) at 37° C. overnight. The plates were rinsed 3 times with PBS containing 0.05% Tween (PBST) then blocked with 3% BSA in PBST at 4° C. overnight. The plates were washed 3 times with PBST. Peptides were then added to the wells at a concentration of approximately 10 μg/ml (diluted in 3% BSA in PBST) and incubated at room temperature for 1 hour. The plates were washed 3 times with PBST then incubated for 1 hour with anti-NOGO antibodies diluted to 5 μg/ml in 3% BSA in PBST. […] The plates were washed 3 times with PBST and then incubated with 100 μl OPD peroxidase substrate (Sigma) per well for 10 minutes. The colour reaction was stopped by the addition of 50 μl 3 molar H₂SO₄. Absorbance at 490 nm was measured using a plate reader.

Experiment [18] has as its target T4, peptide 6 (biotin-SGSG-TPSPVLPDIVMEAPLN) (human, N-terminal biotin).
T4 peptide: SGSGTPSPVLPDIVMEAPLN
Described as above.
Protocol: as §4

T1 sequence (chain, as listed by the source limits assumed): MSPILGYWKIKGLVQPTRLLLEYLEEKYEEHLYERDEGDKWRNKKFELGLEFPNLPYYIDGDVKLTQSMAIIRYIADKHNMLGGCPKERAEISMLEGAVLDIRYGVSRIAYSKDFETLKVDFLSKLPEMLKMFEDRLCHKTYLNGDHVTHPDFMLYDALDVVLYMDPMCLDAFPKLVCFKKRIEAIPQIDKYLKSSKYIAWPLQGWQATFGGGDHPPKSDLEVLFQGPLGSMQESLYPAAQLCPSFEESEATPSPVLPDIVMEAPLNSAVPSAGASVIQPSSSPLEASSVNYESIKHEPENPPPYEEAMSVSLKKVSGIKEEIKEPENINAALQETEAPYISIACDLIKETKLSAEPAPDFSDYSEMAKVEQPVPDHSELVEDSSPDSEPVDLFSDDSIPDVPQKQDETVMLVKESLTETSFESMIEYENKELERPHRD

B1: H6L13 variant with VH CDR3 WQGY (antibody, human IgG1, kappa, V domains shown)
VH: QVQLVQSGAEVKKPGASVKVSCKASGYTFTSYWMHWVRQAPGQGLEWIGNINPSNGGTNYNEKFKSRATMTRDTSTSTAYMELSSLRSEDTAVYYCELWQGYWGQGTLVTVSS
VL: DIVMTQSPLSLPVTLGQPASISCRSSKSLLYKDGKTYLNWFQQRPGQSPQLLIYLMSTRASGVPDRFSGGGSGTDFTLKISRVEAEDVGVYYCQQLVEYPLTFGQGTKLEIKR
notes: Single point variant of H6FL with L13FL
Take B1: the koff in experiment [1] is 0.0198 s⁻¹. For the same molecule, the “EC50 (read off the curve)” value in experiment [2] is ~0.1 µg/mL.

B2: H27L16 (antibody, human IgG1, kappa, V domains shown)
VH: QVQLVQSGAEVKKPGASVKVSCKASGYTFTSYWMHWVKQRPGQGLEWIGNINPSNGGTNYNEKFKSKATLTVDKSTSTAYMELSSLRSEDTAVYYCELMQGYWGQGTLVTVSS
VL: DIVMTQSPLSNPVTLGQPVSISCRSSKSLLYKDGKTYLNWFLQRPGQSPQLLIYLMSTRASGVPDRFSGGGSGTDFTLKISRVEAEDVGVYYCQQLVEYPLTFGQGTKLEIKR
notes: IgG1 (L235A, G237A) / kappa; CAMPATH-1H signal (1-19) left out; also called H27FL L16FL
As to B2, the “EC50 (read off the curve)” value was ~0.1 µg/mL in experiment [3], ~0.06 µg/mL in [5], ~0.06 µg/mL in experiment [6] and ~0.04 µg/mL in experiment [10]. For the same molecule, the Kd in experiment [4] was 0.194 nM; in experiment [7], 0.56 nM; in experiment [9], 0.38 nM; in experiment [11], 0.426 nM; in experiment [12], 0.31 nM. Further, the koff in [4] turned out to be 0.00121 s⁻¹; in experiment [9], 0.0015 s⁻¹; in experiment [11], 0.00306 s⁻¹. For the same molecule, the kon in [4] was found to be 6.24e+06 M⁻¹ s⁻¹; in experiment [9] it was 3.94e+06 M⁻¹ s⁻¹; in experiment [11], 7.18e+06 M⁻¹ s⁻¹. The “IC50 (read off the curve)” value in [8] is ~5 µg/mL. Besides, the binding result in experiment [13] is on record as “binds”.

B3: H26L13 (antibody, human IgG1, kappa, V domains shown)
VH: QVQLVQSGAEVKKPGASVKVSCKASGYTFTSYWMHWVRQAPGQGLEWIGNINPSNGGTNYNEKFKSRATMTRDTSTSTAYMELSSLRSEDTAVYYCELMQGYWGQGTLVTVSS
VL: DIVMTQSPLSLPVTLGQPASISCRSSKSLLYKDGKTYLNWFQQRPGQSPQLLIYLMSTRASGVPDRFSGGGSGTDFTLKISRVEAEDVGVYYCQQLVEYPLTFGQGTKLEIKR
notes: H26 FL is H6 FL with G95M (Kabat); IgG1 (L235A, G237A) / kappa; CAMPATH-1H signal (1-19) left out; also called H6(G95M)L13; H6L13 with VH CDR3 MQGY
With B3, the Kd is 0.963 nM in experiment [4] and 0.87 nM in experiment [15]. The koff in [4] amounted to 0.00311 s⁻¹; in experiment [1] it was 0.00485 s⁻¹; in experiment [15] it was 0.00288 s⁻¹; in [16], 0.00431 s⁻¹. In addition, the values for the kon in [4] and in [15] were 3.23e+06 M⁻¹ s⁻¹ and 3.45e+06 M⁻¹ s⁻¹, respectively. Besides, the “EC50 (read off the curve)” value in experiment [14] is ~0.1 µg/mL; in experiment [6], ~0.03 µg/mL.

B4: 2A10 (murine monoclonal antibody) (antibody, V domains shown)
VH: QVQLQQPGTELVKPGASVKLSCKASGYTFTSYWMHWVKQRPGQGLEWIGNINPSNGGTNYNEKFKSKATLTVDKSSSTAYMQLSSLTSEDSAVYYCELGQGYWGQGTTLTVSS
VL: DIVITQDELSNPVTSGESVSISCRSSKSLLYKDGKTYLNWFLQRPGQSPQLLIYLMSTRASGVSDRFSGSGSGTDFTLEISRVKAEDVGVYYCQQLVEYPLTFGAGTKLELK
notes: Mouse monoclonal; also called parental antibody 2A10; murine donor antibody 2A10
B4: the binding result in [17] and in experiment [18] was “binds” throughout.

By koff is commonly meant a measure of how fast the partners let go of each other. Usually EC50 (read off the curve) stands for the midpoint of the concentration-response curve. A higher EC50 (read off the curve) goes with a less potent agent. By Kd is commonly meant the concentration at which binding is half-saturated. As a reminder, the kon is the rate constant with which the complex forms. High values mean faster complex formation, low ones slower complex formation.
